Experimental data published in patent publication US20200262927A1 (OXFORD BIOTHERAPEUTICS, published 2020).

What was measured:
[1] = target: human CRTAM on in vitro activated human T cells (human) (UniProt O95727); assay: flow cytometry on in vitro activated human T cells, MFI against antibody concentration
[2] = target: T1, human CRTAM on in vitro activated human T cells (human, UniProt O95727 18-393); assay: flow cytometry on in vitro activated human T cells, goat anti-rat IgG-RPE detection, MFI against antibody concentration
T1 sequence: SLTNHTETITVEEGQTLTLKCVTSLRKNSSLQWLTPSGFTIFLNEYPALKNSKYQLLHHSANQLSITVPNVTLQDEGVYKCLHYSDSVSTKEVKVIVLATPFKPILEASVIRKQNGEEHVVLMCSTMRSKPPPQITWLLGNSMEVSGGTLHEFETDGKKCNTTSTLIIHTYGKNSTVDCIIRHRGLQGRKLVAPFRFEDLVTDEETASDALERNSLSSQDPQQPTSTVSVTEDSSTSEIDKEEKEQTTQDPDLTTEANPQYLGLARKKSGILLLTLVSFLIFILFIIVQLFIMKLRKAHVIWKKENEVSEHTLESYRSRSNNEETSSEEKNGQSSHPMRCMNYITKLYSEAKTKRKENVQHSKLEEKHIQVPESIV
Description: Following this the cells were cultured with anti-CD3/anti-CD28 activation beads (Cat #11132D, Thermo Fisher, Waltham, Mass.) for 24 hours before FACS analysis (data not shown).
Fluorescence-activated cell sorting (FACS) analysis was performed in 96-well plate format according to standard protocols. Activated T cells were prepared as above. All subsequent steps of the staining protocol were carried out on ice with ice-cold reagents except for the centrifugation steps which was done at RT. Three-fold serial dilutions of the antibodies, were prepared in FACS buffer to give a 12-point titration curve with final concentrations ranging from 133 nM to 1 pM. The corresponding hybridoma supernatants, isotype controls, and positive control antibodies were diluted in ice cold FACS buffer to be tested at a single point with a final concentration of 30 nM. The antibody dilutions were each dispensed (100 μL/well) into one well for each cell line. […] The final cell pellets were re-suspended in […]+50 μl of 4% paraformaldehyde and fixed until ready to be acquired in a Flow cytometer. […] Geometric mean fluorescence intensity (GMFI or Geo Mean) of each sample was determined using a Guava Easycyte Plus high-throughput flow cytometer (96 well plates) and raw data were analyzed using the Guava Cytosoft Pro Software Module, version 2.2.2 (Millipore, Billerica Mass.). […]

commercially available anti-CRTAM antibody CR24.1 (BioLegend)
EC50 (read off the curve) [1]: 2 µg/mL

B1: 5A11 parental rat monoclonal anti-CRTAM antibody (antibody, V domains shown)
VH: AVQLVESGGGLVQPKESLKISCAASGFTFSDAAMYWVRQAPGKGLEWVARIRTKTNNYAAHYVESVKGRFTVSRDDSKSMVYLQMDNLKTDDTAMYYCTSVPQGTQDYWGQGVMVTVSS
VL: SYELIQPPSASVTLGNTVSLTCVGDELSKRYVQWSQQKPDKTIVSVIYKDSERPSGISDRFSGSSSGTTATLTIHGTLAEDEADYYCLSTYSDDNLPVFGGGTKLTVL
notes: Rat monoclonal from a hybridoma, detected with goat anti-rat IgG; also called antibody 5A11; BUH-5A11-F2
EC50 (read off the curve) [2]: ~0.02 µg/mL
